From US20240294593A1 (Genentech, published 2024)

These binders were tested against T1, human PD-1-His (human, UniProt Q15116 25-167, limits assumed) (assay: Octet).
T1 construct: Antigen of the Octet assays; not shown: His tag
T1 sequence (Q15116 25-167 limits assumed): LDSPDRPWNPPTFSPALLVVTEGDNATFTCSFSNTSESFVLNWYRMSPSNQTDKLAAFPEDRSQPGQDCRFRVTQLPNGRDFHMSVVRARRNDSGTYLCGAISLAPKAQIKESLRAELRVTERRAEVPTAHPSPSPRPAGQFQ

Binder	Kd	koff	kon
H1.37_L1 (antibody, human IgG1, kappa, V domains shown, also called VH-S54A; Kabat 52A; copies: 2 + 2) VH: EVQLVESGGGLVQPGGSLRLSCAASGFTFSSFGMHWVRQAPGKGLEWVSYIASGSSIIYYADSVKGRFTISRDNAKNSLYLQMNSLRAEDTAVYYCARGGRLVWSPDYWGQGTLVTVSS VL: DIVMTQSPDSLAVSLGERATINCKSSQSLLNSGNQKNYLTWYQQKPGQPPKLLIYWASTRESGVPDRFTGSGSGTDFTLTISSLQAEDVAVYYCQNDYSYPFTFGSGTKLEIKR	56 nM	0.00763 s⁻¹	136000 M⁻¹ s⁻¹
H1.38_L1 (antibody, human IgG1, kappa, V domains shown, also called VH-S54Q; Kabat 52Q; copies: 2 + 2) VH: EVQLVESGGGLVQPGGSLRLSCAASGFTFSSFGMHWVRQAPGKGLEWVSYIQSGSSIIYYADSVKGRFTISRDNAKNSLYLQMNSLRAEDTAVYYCARGGRLVWSPDYWGQGTLVTVSS VL: DIVMTQSPDSLAVSLGERATINCKSSQSLLNSGNQKNYLTWYQQKPGQPPKLLIYWASTRESGVPDRFTGSGSGTDFTLTISSLQAEDVAVYYCQNDYSYPFTFGSGTKLEIKR	57.5 nM	0.00776 s⁻¹	135000 M⁻¹ s⁻¹
H1.51_L1 (antibody, human IgG1, kappa, V domains shown, also called VH-S55K; Kabat 52aK) VH: EVQLVESGGGLVQPGGSLRLSCAASGFTFSSFGMHWVRQAPGKGLEWVSYISKGSSIIYYADSVKGRFTISRDNAKNSLYLQMNSLRAEDTAVYYCARGGRLVWSPDYWGQGTLVTVSS VL: DIVMTQSPDSLAVSLGERATINCKSSQSLLNSGNQKNYLTWYQQKPGQPPKLLIYWASTRESGVPDRFTGSGSGTDFTLTISSLQAEDVAVYYCQNDYSYPFTFGSGTKLEIKR	54.9 nM	0.00567 s⁻¹	103000 M⁻¹ s⁻¹
H1.53_L1 (antibody, human IgG1, kappa, V domains shown, also called VH-S55E; Kabat 52aE) VH: EVQLVESGGGLVQPGGSLRLSCAASGFTFSSFGMHWVRQAPGKGLEWVSYISEGSSIIYYADSVKGRFTISRDNAKNSLYLQMNSLRAEDTAVYYCARGGRLVWSPDYWGQGTLVTVSS VL: DIVMTQSPDSLAVSLGERATINCKSSQSLLNSGNQKNYLTWYQQKPGQPPKLLIYWASTRESGVPDRFTGSGSGTDFTLTISSLQAEDVAVYYCQNDYSYPFTFGSGTKLEIKR	96 nM	0.0283 s⁻¹	295000 M⁻¹ s⁻¹
H1.47_L1 (antibody, human IgG1, kappa, V domains shown, also called VH-S55Q; Kabat 52aQ) VH: EVQLVESGGGLVQPGGSLRLSCAASGFTFSSFGMHWVRQAPGKGLEWVSYISQGSSIIYYADSVKGRFTISRDNAKNSLYLQMNSLRAEDTAVYYCARGGRLVWSPDYWGQGTLVTVSS VL: DIVMTQSPDSLAVSLGERATINCKSSQSLLNSGNQKNYLTWYQQKPGQPPKLLIYWASTRESGVPDRFTGSGSGTDFTLTISSLQAEDVAVYYCQNDYSYPFTFGSGTKLEIKR	117 nM	0.0159 s⁻¹	136000 M⁻¹ s⁻¹
H1.44_L1 (antibody, human IgG1, kappa, V domains shown, also called VH-S54E; Kabat 52E) VH: EVQLVESGGGLVQPGGSLRLSCAASGFTFSSFGMHWVRQAPGKGLEWVSYIESGSSIIYYADSVKGRFTISRDNAKNSLYLQMNSLRAEDTAVYYCARGGRLVWSPDYWGQGTLVTVSS VL: DIVMTQSPDSLAVSLGERATINCKSSQSLLNSGNQKNYLTWYQQKPGQPPKLLIYWASTRESGVPDRFTGSGSGTDFTLTISSLQAEDVAVYYCQNDYSYPFTFGSGTKLEIKR	183 nM	0.0225 s⁻¹	123000 M⁻¹ s⁻¹
H1.42_L1 (antibody, human IgG1, kappa, V domains shown, also called VH-S54K; Kabat 52K) VH: EVQLVESGGGLVQPGGSLRLSCAASGFTFSSFGMHWVRQAPGKGLEWVSYIKSGSSIIYYADSVKGRFTISRDNAKNSLYLQMNSLRAEDTAVYYCARGGRLVWSPDYWGQGTLVTVSS VL: DIVMTQSPDSLAVSLGERATINCKSSQSLLNSGNQKNYLTWYQQKPGQPPKLLIYWASTRESGVPDRFTGSGSGTDFTLTISSLQAEDVAVYYCQNDYSYPFTFGSGTKLEIKR	500 nM	0.0265 s⁻¹	53000 M⁻¹ s⁻¹
H1.43_L1 (antibody, human IgG1, kappa, V domains shown, also called VH-S54Y; Kabat 52Y) VH: EVQLVESGGGLVQPGGSLRLSCAASGFTFSSFGMHWVRQAPGKGLEWVSYIYSGSSIIYYADSVKGRFTISRDNAKNSLYLQMNSLRAEDTAVYYCARGGRLVWSPDYWGQGTLVTVSS VL: DIVMTQSPDSLAVSLGERATINCKSSQSLLNSGNQKNYLTWYQQKPGQPPKLLIYWASTRESGVPDRFTGSGSGTDFTLTISSLQAEDVAVYYCQNDYSYPFTFGSGTKLEIKR	665 nM	0.148 s⁻¹	223000 M⁻¹ s⁻¹
H1.41_L1 (antibody, human IgG1, kappa, V domains shown, also called VH-S54H; Kabat 52H; copies: 2 + 2) VH: EVQLVESGGGLVQPGGSLRLSCAASGFTFSSFGMHWVRQAPGKGLEWVSYIHSGSSIIYYADSVKGRFTISRDNAKNSLYLQMNSLRAEDTAVYYCARGGRLVWSPDYWGQGTLVTVSS VL: DIVMTQSPDSLAVSLGERATINCKSSQSLLNSGNQKNYLTWYQQKPGQPPKLLIYWASTRESGVPDRFTGSGSGTDFTLTISSLQAEDVAVYYCQNDYSYPFTFGSGTKLEIKR	74.6 nM	0.0104 s⁻¹	140000 M⁻¹ s⁻¹
H1.40_L1 (antibody, human IgG1, kappa, V domains shown, also called VH-S54V; Kabat 52V; copies: 2 + 2) VH: EVQLVESGGGLVQPGGSLRLSCAASGFTFSSFGMHWVRQAPGKGLEWVSYIVSGSSIIYYADSVKGRFTISRDNAKNSLYLQMNSLRAEDTAVYYCARGGRLVWSPDYWGQGTLVTVSS VL: DIVMTQSPDSLAVSLGERATINCKSSQSLLNSGNQKNYLTWYQQKPGQPPKLLIYWASTRESGVPDRFTGSGSGTDFTLTISSLQAEDVAVYYCQNDYSYPFTFGSGTKLEIKR	231 nM	0.0293 s⁻¹	127000 M⁻¹ s⁻¹
H1.49_L1 (antibody, human IgG1, kappa, V domains shown, also called VH-S55V; Kabat 52aV; copies: 2 + 2) VH: EVQLVESGGGLVQPGGSLRLSCAASGFTFSSFGMHWVRQAPGKGLEWVSYISVGSSIIYYADSVKGRFTISRDNAKNSLYLQMNSLRAEDTAVYYCARGGRLVWSPDYWGQGTLVTVSS VL: DIVMTQSPDSLAVSLGERATINCKSSQSLLNSGNQKNYLTWYQQKPGQPPKLLIYWASTRESGVPDRFTGSGSGTDFTLTISSLQAEDVAVYYCQNDYSYPFTFGSGTKLEIKR	92.8 nM	0.0136 s⁻¹	147000 M⁻¹ s⁻¹
H1.45_L1 (antibody, human IgG1, kappa, V domains shown, also called VH-S55T; Kabat 52aT) VH: EVQLVESGGGLVQPGGSLRLSCAASGFTFSSFGMHWVRQAPGKGLEWVSYISTGSSIIYYADSVKGRFTISRDNAKNSLYLQMNSLRAEDTAVYYCARGGRLVWSPDYWGQGTLVTVSS VL: DIVMTQSPDSLAVSLGERATINCKSSQSLLNSGNQKNYLTWYQQKPGQPPKLLIYWASTRESGVPDRFTGSGSGTDFTLTISSLQAEDVAVYYCQNDYSYPFTFGSGTKLEIKR	74.5 nM	0.0091 s⁻¹	122000 M⁻¹ s⁻¹
H1.39_L1 (antibody, human IgG1, kappa, V domains shown, also called VH-S54G; Kabat 52G; copies: 2 + 2) VH: EVQLVESGGGLVQPGGSLRLSCAASGFTFSSFGMHWVRQAPGKGLEWVSYIGSGSSIIYYADSVKGRFTISRDNAKNSLYLQMNSLRAEDTAVYYCARGGRLVWSPDYWGQGTLVTVSS VL: DIVMTQSPDSLAVSLGERATINCKSSQSLLNSGNQKNYLTWYQQKPGQPPKLLIYWASTRESGVPDRFTGSGSGTDFTLTISSLQAEDVAVYYCQNDYSYPFTFGSGTKLEIKR	115 nM	0.0178 s⁻¹	154000 M⁻¹ s⁻¹

The next binders have a lower Kd than those just listed; values first:

Kd	koff	kon	Binder
41.9 nM	0.00529 s⁻¹	126000 M⁻¹ s⁻¹	H1.46_L1 (antibody, human IgG1, kappa, V domains shown, also called VH-S55A; Kabat 52aA) VH: EVQLVESGGGLVQPGGSLRLSCAASGFTFSSFGMHWVRQAPGKGLEWVSYISAGSSIIYYADSVKGRFTISRDNAKNSLYLQMNSLRAEDTAVYYCARGGRLVWSPDYWGQGTLVTVSS VL: DIVMTQSPDSLAVSLGERATINCKSSQSLLNSGNQKNYLTWYQQKPGQPPKLLIYWASTRESGVPDRFTGSGSGTDFTLTISSLQAEDVAVYYCQNDYSYPFTFGSGTKLEIKR
33.1 nM	0.00423 s⁻¹	128000 M⁻¹ s⁻¹	H1.52_L1 (antibody, human IgG1, kappa, V domains shown, also called VH-S55Y; Kabat 52aY) VH: EVQLVESGGGLVQPGGSLRLSCAASGFTFSSFGMHWVRQAPGKGLEWVSYISYGSSIIYYADSVKGRFTISRDNAKNSLYLQMNSLRAEDTAVYYCARGGRLVWSPDYWGQGTLVTVSS VL: DIVMTQSPDSLAVSLGERATINCKSSQSLLNSGNQKNYLTWYQQKPGQPPKLLIYWASTRESGVPDRFTGSGSGTDFTLTISSLQAEDVAVYYCQNDYSYPFTFGSGTKLEIKR
33.9 nM	0.00457 s⁻¹	135000 M⁻¹ s⁻¹	H1.55_L1 (antibody, human IgG1, kappa, V domains shown, also called VH-G56S; Kabat 53S; copies: 2 + 2) VH: EVQLVESGGGLVQPGGSLRLSCAASGFTFSSFGMHWVRQAPGKGLEWVSYISSSSSIIYYADSVKGRFTISRDNAKNSLYLQMNSLRAEDTAVYYCARGGRLVWSPDYWGQGTLVTVSS VL: DIVMTQSPDSLAVSLGERATINCKSSQSLLNSGNQKNYLTWYQQKPGQPPKLLIYWASTRESGVPDRFTGSGSGTDFTLTISSLQAEDVAVYYCQNDYSYPFTFGSGTKLEIKR
24.2 nM	0.00287 s⁻¹	119000 M⁻¹ s⁻¹	H1.50_L1 (antibody, human IgG1, kappa, V domains shown, also called VH-S55H; Kabat 52aH; copies: 2 + 2) VH: EVQLVESGGGLVQPGGSLRLSCAASGFTFSSFGMHWVRQAPGKGLEWVSYISHGSSIIYYADSVKGRFTISRDNAKNSLYLQMNSLRAEDTAVYYCARGGRLVWSPDYWGQGTLVTVSS VL: DIVMTQSPDSLAVSLGERATINCKSSQSLLNSGNQKNYLTWYQQKPGQPPKLLIYWASTRESGVPDRFTGSGSGTDFTLTISSLQAEDVAVYYCQNDYSYPFTFGSGTKLEIKR
20.1 nM	0.00293 s⁻¹	146000 M⁻¹ s⁻¹	H1.48_L1 (antibody, human IgG1, kappa, V domains shown, also called VH-S55G; Kabat 52aG) VH: EVQLVESGGGLVQPGGSLRLSCAASGFTFSSFGMHWVRQAPGKGLEWVSYISGGSSIIYYADSVKGRFTISRDNAKNSLYLQMNSLRAEDTAVYYCARGGRLVWSPDYWGQGTLVTVSS VL: DIVMTQSPDSLAVSLGERATINCKSSQSLLNSGNQKNYLTWYQQKPGQPPKLLIYWASTRESGVPDRFTGSGSGTDFTLTISSLQAEDVAVYYCQNDYSYPFTFGSGTKLEIKR
31.5 nM	0.00407 s⁻¹	129000 M⁻¹ s⁻¹	H1.56_L1 (antibody, human IgG1, kappa, V domains shown, also called VH-G56T; Kabat 53T; copies: 2 + 2) VH: EVQLVESGGGLVQPGGSLRLSCAASGFTFSSFGMHWVRQAPGKGLEWVSYISSTSSIIYYADSVKGRFTISRDNAKNSLYLQMNSLRAEDTAVYYCARGGRLVWSPDYWGQGTLVTVSS VL: DIVMTQSPDSLAVSLGERATINCKSSQSLLNSGNQKNYLTWYQQKPGQPPKLLIYWASTRESGVPDRFTGSGSGTDFTLTISSLQAEDVAVYYCQNDYSYPFTFGSGTKLEIKR
34.5 nM	0.00432 s⁻¹	125000 M⁻¹ s⁻¹	H1.54_L1 (antibody, human IgG1, kappa, V domains shown, also called VH-G56A; Kabat 53A; copies: 2 + 2) VH: EVQLVESGGGLVQPGGSLRLSCAASGFTFSSFGMHWVRQAPGKGLEWVSYISSASSIIYYADSVKGRFTISRDNAKNSLYLQMNSLRAEDTAVYYCARGGRLVWSPDYWGQGTLVTVSS VL: DIVMTQSPDSLAVSLGERATINCKSSQSLLNSGNQKNYLTWYQQKPGQPPKLLIYWASTRESGVPDRFTGSGSGTDFTLTISSLQAEDVAVYYCQNDYSYPFTFGSGTKLEIKR
